Reference: PMC8958351, “Ubiquitylation of cyclin C by HACE1 regulates cisplatin‐associated sensitivity in gastric cancer” (Clinical and Translational Medicine, 2022)

Assays:
Assay in all cases: pull-down; GST pull-down; purified GST-HACE1 proteins incubated with purified cyclin C-MBP-His for 6 h at 4°C in 50 mM Tris-Cl, 200 mM NaCl, 1 mM EDTA, 1% NP-40, 1 mM DTT, 10 mM MgCl2, 10 μg/ml BSA, pH 8.0; GST pulled down, cyclin C immunoblotted
Settings in all cases: both partners purified
[1] = molecular target: T1, GST‐HACE1 truncation, amino acids 1–546 (human, UniProt Q8IYU2 1-546)
T1 sequence (looked up): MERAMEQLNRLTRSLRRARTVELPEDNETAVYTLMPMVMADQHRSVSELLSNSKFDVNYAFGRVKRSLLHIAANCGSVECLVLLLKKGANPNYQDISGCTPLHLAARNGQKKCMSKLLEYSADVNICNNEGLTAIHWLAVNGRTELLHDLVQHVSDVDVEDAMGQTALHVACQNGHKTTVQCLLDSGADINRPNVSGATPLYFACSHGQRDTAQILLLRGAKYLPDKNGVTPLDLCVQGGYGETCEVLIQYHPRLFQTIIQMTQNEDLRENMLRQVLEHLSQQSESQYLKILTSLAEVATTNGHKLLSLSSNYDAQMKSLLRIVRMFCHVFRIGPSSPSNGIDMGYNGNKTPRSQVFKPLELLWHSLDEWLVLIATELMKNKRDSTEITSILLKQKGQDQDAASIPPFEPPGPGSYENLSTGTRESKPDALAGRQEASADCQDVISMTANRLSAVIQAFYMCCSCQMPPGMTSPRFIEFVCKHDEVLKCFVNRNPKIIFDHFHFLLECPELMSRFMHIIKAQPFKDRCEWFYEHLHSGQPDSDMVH

[2] = molecular target: T2, GST‐HACE1 truncation, amino acids 547–909 (human, UniProt Q8IYU2 547-909)
T2 sequence (looked up): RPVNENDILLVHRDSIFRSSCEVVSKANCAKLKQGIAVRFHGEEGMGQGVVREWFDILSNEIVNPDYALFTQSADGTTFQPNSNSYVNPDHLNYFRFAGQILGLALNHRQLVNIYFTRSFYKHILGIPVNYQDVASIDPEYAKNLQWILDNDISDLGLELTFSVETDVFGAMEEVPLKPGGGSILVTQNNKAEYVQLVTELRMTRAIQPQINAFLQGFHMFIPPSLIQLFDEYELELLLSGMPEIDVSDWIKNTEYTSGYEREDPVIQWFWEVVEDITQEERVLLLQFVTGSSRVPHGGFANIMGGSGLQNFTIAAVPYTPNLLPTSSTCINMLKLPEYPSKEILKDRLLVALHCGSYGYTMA

GST‐HACE1 = molecular target: T3, GST‐HACE1 (human, UniProt Q8IYU2 1-909)
T3 construct: HACE1, human; the cDNA encoding HACE1 cloned into pGEX4T-1; also called recombinant glutathione (GST)‐tagged HACE1; GST‐fused HACE1
T3 sequence (looked up): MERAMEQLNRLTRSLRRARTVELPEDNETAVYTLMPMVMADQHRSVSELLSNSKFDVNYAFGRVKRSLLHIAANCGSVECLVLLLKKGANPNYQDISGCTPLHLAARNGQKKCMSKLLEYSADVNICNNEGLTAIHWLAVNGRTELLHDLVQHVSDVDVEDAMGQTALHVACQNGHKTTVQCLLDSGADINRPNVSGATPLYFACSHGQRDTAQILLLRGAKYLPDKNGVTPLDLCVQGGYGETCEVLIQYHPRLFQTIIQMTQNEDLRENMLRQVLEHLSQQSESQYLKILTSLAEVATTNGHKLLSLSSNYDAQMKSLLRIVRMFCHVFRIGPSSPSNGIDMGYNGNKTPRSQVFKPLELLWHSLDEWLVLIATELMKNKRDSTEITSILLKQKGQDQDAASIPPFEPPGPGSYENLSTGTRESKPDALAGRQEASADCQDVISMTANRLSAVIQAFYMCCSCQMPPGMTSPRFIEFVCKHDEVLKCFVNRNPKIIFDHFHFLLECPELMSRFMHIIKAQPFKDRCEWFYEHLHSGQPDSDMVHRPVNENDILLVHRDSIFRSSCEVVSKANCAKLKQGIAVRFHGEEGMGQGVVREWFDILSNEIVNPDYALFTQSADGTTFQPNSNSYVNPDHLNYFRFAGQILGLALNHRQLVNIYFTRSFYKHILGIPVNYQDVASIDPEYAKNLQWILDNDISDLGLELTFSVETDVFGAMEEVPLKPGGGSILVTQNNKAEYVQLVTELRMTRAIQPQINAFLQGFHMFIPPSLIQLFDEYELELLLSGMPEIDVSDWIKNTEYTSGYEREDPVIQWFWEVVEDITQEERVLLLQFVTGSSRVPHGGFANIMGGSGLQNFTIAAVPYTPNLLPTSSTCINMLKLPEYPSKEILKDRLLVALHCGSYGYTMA

[3] = molecular target: T4, GST‐HACE1 truncation, amino acids 258–909 (human, UniProt Q8IYU2 258-909)
T4 sequence (looked up): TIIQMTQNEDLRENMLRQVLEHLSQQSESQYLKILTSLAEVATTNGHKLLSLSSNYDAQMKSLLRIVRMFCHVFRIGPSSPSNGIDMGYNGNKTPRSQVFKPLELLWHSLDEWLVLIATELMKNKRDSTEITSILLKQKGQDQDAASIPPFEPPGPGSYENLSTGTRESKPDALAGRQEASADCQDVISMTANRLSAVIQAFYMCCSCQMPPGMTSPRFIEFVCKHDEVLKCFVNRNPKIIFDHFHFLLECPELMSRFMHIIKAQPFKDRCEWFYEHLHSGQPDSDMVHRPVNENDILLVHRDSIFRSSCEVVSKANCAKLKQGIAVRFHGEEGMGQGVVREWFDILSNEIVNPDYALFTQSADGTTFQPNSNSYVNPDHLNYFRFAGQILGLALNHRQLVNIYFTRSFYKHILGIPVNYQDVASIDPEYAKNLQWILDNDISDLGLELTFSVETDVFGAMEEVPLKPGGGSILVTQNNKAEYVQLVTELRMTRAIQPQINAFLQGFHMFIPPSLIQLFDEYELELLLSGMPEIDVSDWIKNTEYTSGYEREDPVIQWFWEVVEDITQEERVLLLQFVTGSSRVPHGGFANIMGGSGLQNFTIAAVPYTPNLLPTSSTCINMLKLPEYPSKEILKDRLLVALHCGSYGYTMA

Measured: binding result

B1: MBP‐His‐tagged cyclin C (natural protein, human)
chain: MAGNFWQSSHYLQWILDKQDLLKERQKDLKFLSEEEYWKLQIFFTNVIQALGEHLKLRQQVIATATVYFKRFYARYSLKSIDPVLMAPTCVFLASKVEEFGVVSNTRLIAAATSVLKTRFSYAFPKEFPYRMNHILECEFYLLELMDCCLIVYHPYRPLLQYVQDMGQEDMLLPLAWRIVNDTYRTDLCLLYPPFMIALACLHVACVVQQKDARQWFAELSVDMEKILEIIRVILKLYEQWKNFDERKEMATILSKMPKPKPPPNSEGEQGPNGSQNSSYSQS
notes: Cyclin C, human; the cDNA of CCNC cloned into pSJ8 (pET21a derivative, MBP-His fusion vector); also called cyclin C‐MBP‐His; source: Escherichia coli BL21, purified (Ni‐NTA agarose beads)
binds: all assays above
